Laboratory results: patent US20160312212A1, “COW ANTIBODY SCAFFOLD POLYPEPTIDE METHOD AND COMPOSITION” (Roche Sequencing Solutions, Inc., priority 2015, published 2016)

Target: T1, human thrombin (Homo sapiens, UniProt P00734)
T1 construct: biotin (chemical label)
Assay: mRNA display selection against thrombin, selected sequences ranked by next-generation-sequencing frequency
Format: binding
Conditions: for percentage (%): share of recovered sequences; for counts: top binders ranked by frequency
Description: 1 ml of the fusions from the previous step were added to 50 ul of M270 SA beads blocked with TBSTE+2% BSA at room temperature, and were incubated at room temperature for 30 min, and the supernatant was removed for binding with biotinylated thrombin.
8) Pre-Selected Fusions were Bound to 3 ul Biotinylated Human Thrombin at 1 U/ul at 4° C. for 1 h with Rotation
25 ul of M270 SA bead suspension was washed and blocked with TBSTE+2% BSA. The beads were then collected, mixed with 1 ml of each fusion/target complex, and incubated at room temperature for 30 min. The mixture was washed 3× in TBSTE, transferred to a new tube, and the cDNA was eluted with 50 ul of 0.1 N NaOH at room temperature for 3 min. Then 2.5 ul 3M NaAc, pH5.5. BioRad spin column was added and the volume was adjusted to 147 ul with H2O.
The following rounds of selections (3-5) were carried out following the above procedure with increased stringency (e.g. lower amounts of fusion molecule input and increased number of washing steps). After each round of selection, similar PCR amplification was done to prepare the DNA library for the next round of selection.
In summary, for example, one round of mRNA display consisted of the following steps: in vitro transcription, DNase digestion, conjugation with the puromycin oligo linker, in vitro translation/fusion formation, FLAG fusion molecule purification, reverse transcription, pre-selection or functional selection, and regeneration of the selected sequences. Briefly, the cDNA library was in vitro transcribed using T7 RNA polymerase, the mRNA templates with puromycin at the 3′ ends were generated by crosslinking with an oligonucleotide containing a psoralen residue and a puromycin residue at its 5′ and 3′ ends, respectively, and in vitro translation was performed using an NEB Purexpress Δ123 kit. The desired mRNA-protein fusions were then isolated from the translation reaction mixture using anti-FLAG magnetic beads. The fusion molecules were then converted into DNA/RNA hybrids through reverse transcription. This step removed secondary mRNA structures that might interfere with the subsequent selection.
To analyze the results of the selection, the DNA libraries were amplified after each round of selection using specially-designed sequencing primers that harbor Illumina next-generation-sequencing adapters. The libraries were mixed, further purified and next generation sequencing was performed. Peptide sequences recovered after each round of selection were called out according to their unique sequencing barcode and further comparison and analysis was done. Next-generation-sequencing provided the advantages of high throughput and a more complete overview of the selected species.
When thrombin was used as a target, a total of three rounds of selections were carried out. The selection pressure was increased by increasing the washing stringency (from three times to five times then to ten times for selection round 1, 2 and 3). Table 1 illustrates the top binders (ranked according to their frequency) after each round of selection. After selection round 3, more than 30% of the selected peptides contained the conserved “RDPGR” (SEQ ID NO:331) motif. The most abundant peptide “RDPGRLIFQS” (SEQ ID NO:332) was chosen for further analysis.

[1] = Round 2 of selection, five washes
[2] = Round 1 of selection, three washes
[3] = Round 3 of selection, ten washes

Substance	percentage (%) [1]	counts [1]	percentage (%) [2]	counts [2]	percentage (%) [3]	counts [3]
AAVRLNSSS*	0.0046%	75	–	–	–	–
ETRIYIRFHT (MGCTSVHQETKKYQSETRIYIRFHTSYTYNYEHVDVWGCGSADYKDDDDKKK)	0.0052%	86	–	–	–	–
HCDTLELRPA (MGCTSVHQETKKYQSHCDTLELRPASYTYNYEHVDVWGCGSADYKDDDDKKK)	–	–	1.2E−03%	40	–	–
HRLQIATVYT (MGCTSVHQETKKYQSHRLQIATVYTSYTYNYEHVDVWGCGSADYKDDDDKKK)	0.0109%	179	1.3E−03%	42	–	–
KCCTSMVIQL (MGCTSVHQETKKYQSKCCTSMVIQLSYTYNYEHVDVWGCGSADYKDDDDKKK)	–	–	1.2E−03%	38	–	–
LKQTDFRTPI (MGCTSVHQETKKYQSLKQTDFRTPISYTYNYEHVDVWGCGSADYKDDDDKKK)	–	–	1.2E−03%	39	–	–
LQRAISSYSR (MGCTSVHQETKKYQSLQRAISSYSRSYTYNYEHVDVWGCGSADYKDDDDKKK)	–	–	1.2E−03%	38	–	–
PLIHPRRGYA (MGCTSVHQETKKYQSPLIHPRRGYASYTYNYEHVDVWGCGSADYKDDDDKKK)	–	–	1.3E−03%	43	–	–
PPVLPQLVLL (MGCTSVHQETKKYQSPPVLPQLVLLSYTYNYEHVDVWGCGSADYKDDDDKKK)	–	–	1.4E−03%	44	–	–
QFHLEFAFTL (MGCTSVHQETKKYQSQFHLEFAFTLSYTYNYEHVDVWGCGSADYKDDDDKKK)	–	–	–	–	0.020%	164
QMSFRFEVRV (MGCTSVHQETKKYQSQMSFRFEVRVSYTYNYEHVDVWGCGSADYKDDDDKKK)	–	–	–	–	0.025%	211
RDPGRIVFNN (MGCTSVHQETKKYQSRDPGRIVFNNSYTYNYEHVDVWGCGSADYKDDDDKKK)	0.0475%	781	–	–	1.144%	9534
RDPGRLIFQS (MGCTSVHQETKKYQSRDPGRLIFQSSYTYNYEHVDVWGCGSADYKDDDDKKK)	0.1608%	2642	–	–	20.512%	170914
RDPGRVIFEI (MGCTSVHQETKKYQSRDPGRVIFEISYTYNYEHVDVWGCGSADYKDDDDKKK)	0.0993%	1632	–	–	10.038%	83638
RDPYNVLISL (MGCTSVHQETKKYQSRDPYNVLISLSYTYNYEHVDVWGCGSADYKDDDDKKK)	0.0170%	278	–	–	0.084%	702
RFHLFILGTS (MGCTSVHQETKKYQSRFHLFILGTSSYTYNYEHVDVWGCGSADYKDDDDKKK)	–	–	1.4E−03%	46	–	–
RSHGQFSFTF (MGCTSVHQETKKYQSRSHGQFSFTFSYTYNYEHVDVWGCGSADYKDDDDKKK)	–	–	–	–	0.031%	258
RTKIK*NGL*	0.0052%	86	–	–	–	–
SIEFGLTFSF (MGCTSVHQETKKYQSSIEFGLTFSFSYTYNYEHVDVWGCGSADYKDDDDKKK)	–	–	–	–	0.023%	195
SLFVEYRITY (MGCTSVHQETKKYQSSLFVEYRITYSYTYNYEHVDVWGCGSADYKDDDDKKK)	–	–	–	–	0.027%	224
SQSERATPRY (MGCTSVHQETKKYQSSQSERATPRYSYTYNYEHVDVWGCGSADYKDDDDKKK)	–	–	1.5E−03%	47	–	–
TQPKLTIEQR	–	–	1.3E−03%	42	–	–
VTSTYMFMYA	0.0051%	84	–	–	0.021%	175
VVEFHFKWCI	0.0046%	75	–	–	–	–
